In CN114409797A (HEFEN TIANKPORT IMMUNOLOGICAL DRUG CO LTD, dated 2022):

B1: CD3×PD1mut双特异抗体 (bispecific antibody)
chain 1: EVQLLESGGGLVQPGGSLKLSCAASGFTFNTYAMNWVRQAPGKGLEWVARIRSKYNNYATYYADSVKDRFTISRDDSKNTAYLQMNNLKTEDTAVYYCVRHGNFGNSYVSWFAYWGQGTLVTVSSGGGGSGGGGSGGGGSELVVTQEPSLTVSPGGTVTLTCRSSTGAVTTSNYANWVQQKPGQAPRGLIGGTNKRAPGTPARFSGSLLGGKAALTLSGVQPEDEAEYYCALWYSNLWVFGGGTKLTVLGGGGSPKSCDKTHTCPPCPAPELLGGPSVFLFPPKPKDTLMISRTPEVTCVVVAVSHEDPEVKFNWYVDGVEVHNAKTKPREEQYASTYRVVSVLTVLHQDWLNGKEYKCKVSNKALPAPIEKTISKAKGQPREPQVYTLPPSREEMTKNQVSLWCLVKGFYPSDIAVEWESNGQPENNYKTTPPVLDSDGSFFLYSKLTVDKSRWQQGNVFSCSVMHEALHNHYTQKSLSLSPGK
chain 2: not shown
notes: Two-chain knob-into-hole heterodimer with human IgG1 Fc
B2: CD3×PD1双特异抗体 (bispecific antibody)
chain 1: B1 chain 1
chain 2: not shown
notes: as for B1

Target: PD-L1蛋白 (expressed on CHO-K1-PD-L1 cells) (Homo sapiens (Human), UniProt Q9NZQ7 19-290)
Sequence (Q9NZQ7 19-290 limits assumed): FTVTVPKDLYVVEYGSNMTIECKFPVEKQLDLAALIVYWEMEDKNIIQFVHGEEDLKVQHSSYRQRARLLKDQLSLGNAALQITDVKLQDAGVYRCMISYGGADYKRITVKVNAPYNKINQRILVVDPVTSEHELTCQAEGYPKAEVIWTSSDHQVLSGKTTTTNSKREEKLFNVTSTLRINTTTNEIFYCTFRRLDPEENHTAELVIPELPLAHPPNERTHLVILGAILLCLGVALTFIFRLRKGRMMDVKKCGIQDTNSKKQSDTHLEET
Experiment: flow cytometry on CHO-K1-PD-L1 cells, Alexa-647 anti-human Fc secondary antibody

| Binder | binding result |
| --- | --- |
| B1 | binds |
| B2 | binds |
